Data on 14 sequences can be found in a protein production outcome set (Wang et al. 2014).

This series can be described thus: label from the status in PepcDB records.
On to “NDPDADRFAVAVRKDDGEYQMLTGDQVGVLFGHYLLSHASADQRLVGTTIVSSSLLSKIANGFGVESYTTLTGFKWLMNVGIAQSQPDNQFLFAYEEALGYTVGNMVWDKDGLSALVAFAQLTAELAAKGQTIWDRLEQIYREQGFHLN”, for which the protein production entry is listed as “failed”.

Take “NFDTNMFKLENYVKEKYSLESLEIIPNEFDDTPTILSERISQVAAGVLRNLIDDNMKIGFSWGKSLSNLVDLIHSKSVRNVHFYPLAGGPSHIHAKYHVNTLIYEMSRKFHGECTFMNATIVQENKLLADGILQSRYFENLKNSWKDLDIAVVGIGDFSNKGKHQWLDMLTEDDFKELTKVKTVGEICCRFFDSKGKEVYENLQERTIAISLEDLKNIPQSLAVAYGDTKVSSILSVLRANLVNHLITDKNTILKVLEEDGDL”: the protein production result is on record as “not failed”.

Take “NFSNRVQDVIRLSREEALRLGHDYIGTEHLLLGLIREGEGIGAKILKNLKVDLFQLKQKIEENTHPKVPATQMGNVPLTKQAEKVLKITYLEAKICKSTIIGTEHLLLSILKGDDNIAAQILEQFGVTYDQVRDELMTITT”: the protein production entry was “not failed”. For “NFTLAITEAVSEKEIYNKLAENLPKILQADRGSVTLITENKDEFEVFSLQGPEGMLSIGKYFSVDNSLAGLAVQQEKTIISKLNADRIEIDAQQLYQQDLLSIMNSPLQFSDRIIGTVNIGSYKENAYDSTSLELLTLVSTLVSNYLERQHLLEQAQIGVKQYKTYSKQLESLNHVAEELCAATNE”, the protein production entry is on record as “failed”. Consider “NGKLFLVGTPIGNLKDITLRALETLQNCDVIAAEDTRQSLKLLNHFDIKKPLISYHKFNENNRSSELMDMVREGKKVALVTDAGMPGISDPGSVIVEKFIENNLEFEVIPG”, for which the protein production result is on record as “not failed”. Consider “NIGSAVPRGELVLAMEKIGKLLQERGGSVVIRGHTDGRQFKGEANDNWRLSMDRAHSAYYMLVRGGLSEERVKQVSGFADRRLQVPSNPLADANRRIEILLEADR”, for which the protein production result was “failed”. As for “NIPEIENANLKPALKDSVLPDGFYSTTNHPTHVKVNDEWIEVANPKMDAVIVVYPEEKRAETKVIRKVKKGDFVLIGHNGIRVMPPEKSREAGQLFEFMNSEVSSEKPKEAIIKRIAKEMHEIREEYKKTGTGGIAIVGGPAIIHTGGGPALAKMVELGYIQAILAGNALATHDIESALYGTSLGVNIKTAKPVTGGHKHHIYAINAINDAGNIKNAVESGVLKEGIMYQCIKNNIPYVLAGSIRDDGPIPDVITDSMVAQDKMRTTVMDKKMVIMLSTLLHSVATGNLMPSYIKTVCVDIQPSTVTKLMDRGTSQAIGVVTDVGVFLVLLLKELERLELQE”, the entry is “not failed”; as for “NKSYRSTEQITNFAKALLPDGDQIQAFTRKGDLPKVMIRYGEDAALSSLRSEVEHQLKATNTVAVLTKDLAESKQVYQYLKRYTVTTLMADSDRTMPQGVIVMPIYLAKGLEFDAVVAYDVSATNYPDADSVGILYTIASRAMHHLTLLSIGDVSPLIAQLDPTLFTIEHQVRV”, “not failed”. With “NKYNKIANELIKIIGEDNIISITHCATRLRVMVKDREIINDKKVEKVDEVKGVFFTSGQYQIILGTGIVNKVYAEVEKMGLKTLSKKEQDELVKNNE” the entry was “not failed”; with “NLDPQRVEQEMILLAQRIDVAEELDRLQMHVKETTNILKKGGAVGRKLDFMMQELNRESNTLASKSINADITASAVELKVLIEQMREQIQNLE”, “failed”; with “NLNAIQNFGAMDILCTDKTGTLTCDKIVLEKYINADGSDDNSKRILRHAYFNSYFQTGLRNLMDKAILSHVRELNLEHLKDAYTKVDEIPFDFTRRRMSVVIEDRQGKRQIITKGAVEEILDVCSYAEFDREIHPLTDSLKIKAQKISEEMNRQGMRVLAVSQKSFIEKDCNFAIEDEKEMVLIGYLAFLDP”, “not failed”. “NLSELTPYILCSICKGYLIDATTITECLHTFCKSCIVRHFYYSNRCPKCNIVVHQTQPL”: the protein production result is recorded as “not failed”. In the case of “NNLFVYCEIEEGIVADVSLELLTKGRSLANELNCQLEAVVAGTGLKEIEKQILPYGVDKLHVFDAEGLYPYTSLPHTSILVNLFKEEQPQICLMGATVIGRDLGPRVSSALTSGLTADCTSLEIGDHEDKKEGKVYKNLLYQIRPAFGGNIVATIVNPEHRPQMATVREGVMKKEIVSPAYQGEVIRHDVKKYVADTDYVVKVIERHVEKAKNN”, the protein production entry is listed as “not failed”.

As for “NPHMWWLQDADPENNSRQASPSQESINQLVYMGFDTVVAEAALRVFGGNVQLAAQTLAHHGGSLPPDLQF”, the protein production result is on record as “not failed”.
